Data taken from PMC2118669.

Biological target: recombinant AIF (UniProt Q9Z0X1)
Assay: SPR

Sequence of UniProt Q9Z0X1 (Q9Z0X1 102-612): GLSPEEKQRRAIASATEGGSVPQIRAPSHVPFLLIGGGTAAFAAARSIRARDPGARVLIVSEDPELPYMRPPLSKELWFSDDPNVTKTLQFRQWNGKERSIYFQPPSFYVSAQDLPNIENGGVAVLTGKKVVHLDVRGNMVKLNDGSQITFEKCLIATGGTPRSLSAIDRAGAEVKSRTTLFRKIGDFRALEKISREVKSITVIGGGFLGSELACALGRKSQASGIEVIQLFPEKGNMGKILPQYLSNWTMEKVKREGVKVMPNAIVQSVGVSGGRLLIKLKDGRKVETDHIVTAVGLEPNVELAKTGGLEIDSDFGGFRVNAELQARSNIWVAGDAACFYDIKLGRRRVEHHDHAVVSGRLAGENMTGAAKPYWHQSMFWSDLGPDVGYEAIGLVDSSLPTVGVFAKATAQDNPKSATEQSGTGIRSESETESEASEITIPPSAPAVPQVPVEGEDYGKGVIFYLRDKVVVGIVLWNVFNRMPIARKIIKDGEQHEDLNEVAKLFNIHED

Substance: recombinant CypA (from UniProt P62937 1-165) (natural protein)
- response (RU) on injection of 25 nM CypA: 123 RU
